Assay results: the RNAGym collection of RNA variant scans (doi:10.1093/molbev/msab373)

B1: Azoarcus group I ribozyme (parent)
chain: GUGCCUUGCGCCGGGAAACCACGCAAGGGAUGGUGUCAAAUUCGGCGAAACCUAAGCGCCCGCCCGGGCGUAUGGCAACGCCGAGCCAAGCUUCGGCGCCUGCGCCGAUGAAGGUGUAGAGACUAGACGGCACCCACCUAAGGCAAACGCUAUGGUGAAGGCAUAGUCCAGGGAGUGGCGAAAGUCACACAAACCGG

Variants of: B1
Experiment: reverse-splicing fitness (ratio to wild type); higher = more active; in vitro selection; Mg2+ level not given
In short: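 An in vitro group I ribozyme library with randomized positions was T7-transcribed and gel-purified. In triplicate, 10 pmol RNA in EPPS pH 7.5 was reacted with 50 pmoles of a 30-nt RNA substrate for 1 h at 37 °C across several added MgCl2 levels (1–48 mM), then stopped with EDTA. Products were reverse transcribed from a substrate-complementary primer, PCR-amplified and sequenced (HiSeq 4000). Fitness is a variant's read proportion after selection over that before, normalised to wild type.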
Variant C82A A111C A120C A145G C150U C169U U176A has a reverse-splicing fitness of 0.0121. Work on C82A A111C A120C C150G C169U U176A yielded a reverse-splicing fitness of 0.00611. With C82A A111C A120C C150G C169U U176G the reverse-splicing fitness was 0.00771. For C82A A111C A120C C150G C169U U176C, the reverse-splicing fitness was 0.0102. In the case of C82A A111C A120C C169G U176C, the reverse-splicing fitness is reported as 0.0233. With C82A A111C A120C C169G U176A the reverse-splicing fitness was 0.0174. With C82A A111C A120C C169G U176G the reverse-splicing fitness was 0.00756. In the case of C82A A111C A120C A145U C150U C169U U176G, the reverse-splicing fitness is reported as 0.00824. C82A A111C A120C A145U C150U C169U U176A gave a reverse-splicing fitness of 0.0135. C82A A111C A120C A145U C150U C169U U176C gave a reverse-splicing fitness of 0.0133. Variant C82A A111C A120C A145G C169G U176G has a reverse-splicing fitness of 0.00694. C82A A111C A120C A145G C169G U176C showed a reverse-splicing fitness of 0.0247. For C82A A111C A120C A145G C169G U176A, the reverse-splicing fitness was 0.0212. For C82A A111C A120C A145U C150U C169G U176G, the reverse-splicing fitness was 0.00815. In the case of C82A A111C A120C A145U C150U C169G U176C, the reverse-splicing fitness is reported as 0.015. Variant C82A A111C A120C A145U C150U C169G U176A has a reverse-splicing fitness of 0.0127. With C82A A111C A120C C169A U176G the reverse-splicing fitness was 0.00712. C82A A111C A120C C169A U176A showed a reverse-splicing fitness of 0.0163. Work on C82A A111C A120C C169A U176C yielded a reverse-splicing fitness of 0.0179. C82A A111C A120G A145C C150U C169G U176C showed a reverse-splicing fitness of 0.0133. For C82A A111C A120G A145C C150U C169G U176G, the reverse-splicing fitness was 0.00558. Work on C82A A111C A120G A145C C150U C169G U176A yielded a reverse-splicing fitness of 0.0217. C82A A111C A120G A145C C150U U176G gave a reverse-splicing fitness of 0.00502. Work on C82A A111C A120G A145C C150U U176C yielded a reverse-splicing fitness of 0.0119. Work on C82A A111C A120G A145C C150U U176A yielded a reverse-splicing fitness of 0.00894. Work on C82A A111C A120C A145G C150G U176A yielded a reverse-splicing fitness of 0.00652. For C82A A111C A120C A145G C150G U176C, the reverse-splicing fitness was 0.0113. With C82A A111C A120C A145G C150G U176G the reverse-splicing fitness was 0.00679. In the case of C82A A111C A120C A145G C150U C169G U176G, the reverse-splicing fitness is reported as 0.00711. For C82A A111C A120C A145G C150U C169G U176A, the reverse-splicing fitness was 0.0127. In the case of C82A A111C A120C A145G C150U C169G U176C, the reverse-splicing fitness is reported as 0.0166. In the case of C82A A111C A120C A145U, the reverse-splicing fitness is reported as 0.0241. C82A A111C A120C A145C showed a reverse-splicing fitness of 0.0248. In the case of C82A A111C A120C A145G, the reverse-splicing fitness is reported as 0.0258. Work on C82A A111C A120C C150A C169G U176C yielded a reverse-splicing fitness of 0.0202. With C82A A111C A120C C150A C169G U176G the reverse-splicing fitness was 0.00878. Work on C82A A111C A120C C150A C169G U176A yielded a reverse-splicing fitness of 0.0168. Work on C82A A111C A120C A145U C150U U176C yielded a reverse-splicing fitness of 0.0187. C82A A111C A120C A145U C150U U176A gave a reverse-splicing fitness of 0.0128. C82A A111C A120C A145U C150U U176G gave a reverse-splicing fitness of 0.00695. Variant C82A A111C A120C A145G C150A C169G U176A has a reverse-splicing fitness of 0.0172. Variant C82A A111C A120C A145G C150A C169G U176C has a reverse-splicing fitness of 0.0238. With C82A A111C A120C A145G C150A C169G U176G the reverse-splicing fitness was 0.00821. For C82A A111C A120C C150G U176C, the reverse-splicing fitness was 0.00863. C82A A111C A120C C150G U176A showed a reverse-splicing fitness of 0.00563. For C82A A111C A120C C150G U176G, the reverse-splicing fitness was 0.00353. For C82A A111C A120C A145G C150U, the reverse-splicing fitness was 0.0241. In the case of C82A A111C A120C A145G C150A, the reverse-splicing fitness is reported as 0.0108. Work on C82A A111C A120C A145G C150G yielded a reverse-splicing fitness of 0.00852. For C82A A111C A120C C150G C169A U176A, the reverse-splicing fitness was 0.00991. C82A A111C A120C C150G C169A U176C showed a reverse-splicing fitness of 0.0121. C82A A111C A120C C150G C169A U176G showed a reverse-splicing fitness of 0.00778. C82A A111C A120C A145U C150U gave a reverse-splicing fitness of 0.0202. Variant C82A A111C A120C A145U C150A has a reverse-splicing fitness of 0.00979. Work on C82A A111C A120C A145U C150G yielded a reverse-splicing fitness of 0.00822. For C82A A111C A120C A145U C150U C169A U176C, the reverse-splicing fitness was 0.0129. Work on C82A A111C A120C A145U C150U C169A U176A yielded a reverse-splicing fitness of 0.0153. With C82A A111C A120C A145U C150U C169A U176G the reverse-splicing fitness was 0.00742. In the case of C82A A111C A120C A145U C150G C169G U176G, the reverse-splicing fitness is reported as 0.00725. In the case of C82A A111C A120C A145U C150G C169G U176A, the reverse-splicing fitness is reported as 0.00819. Variant C82A A111C A120C A145U C150G C169G U176C has a reverse-splicing fitness of 0.00621. For C82A A111C A120C A145U C150A U176C, the reverse-splicing fitness was 0.0164. In the case of C82A A111C A120C A145U C150A U176G, the reverse-splicing fitness is reported as 0.00638. Variant C82A A111C A120C A145U C150A U176A has a reverse-splicing fitness of 0.0112. For C82A A111C A120C A145U C150U C169G, the reverse-splicing fitness was 0.00764. With C82A A111C A120C A145U C150U C169U the reverse-splicing fitness was 0.0124. For C82A A111C A120C A145U C150U C169A, the reverse-splicing fitness was 0.00985. Variant C82A A111C A120G A145C C150G U176G has a reverse-splicing fitness of 0.00311. For C82A A111C A120G A145C C150G U176C, the reverse-splicing fitness was 0.0141. With C82A A111C A120G A145C C150G U176A the reverse-splicing fitness was 0.00683. For C82A A111C A120C A145C C169G U176G, the reverse-splicing fitness was 0.0074. For C82A A111C A120C A145C C169G U176C, the reverse-splicing fitness was 0.0213. C82A A111C A120C A145C C169G U176A gave a reverse-splicing fitness of 0.0258. Work on C82A A111C A120C C150U C169U U176A yielded a reverse-splicing fitness of 0.0177. Variant C82A A111C A120C C150U C169U U176G has a reverse-splicing fitness of 0.0075. C82A A111C A120C C150U C169U U176C showed a reverse-splicing fitness of 0.0139. Variant C82A A111C A120C A145C C150G C169A U176G has a reverse-splicing fitness of 0.00767. Work on C82A A111C A120C A145C C150G C169A U176A yielded a reverse-splicing fitness of 0.00949. C82A A111C A120C A145C C150G C169A U176C gave a reverse-splicing fitness of 0.00798. Variant C82A A111C A120G A145C C150G C169G has a reverse-splicing fitness of 0.00683. Work on C82A A111C A120G A145C C150G C169U yielded a reverse-splicing fitness of 0.00668. C82A A111C A120G A145C C150G C169A gave a reverse-splicing fitness of 0.00757. Variant C82A A111C A120G A145C C150U C169U U176G has a reverse-splicing fitness of 0.00482.
